Laboratory results from the supplement of paper PMC10724198.
± gives the standard deviation of the averaged measurements.

Experiments:
Saccharomyces cerevisiae [1] = assay: protein stability index of tFT-peptide fusion (C-terminal peptide) (PSI (0-1 scale)); higher = more stable (slower turnover); conditions: genetic background: wild type; temperature: 30 C
Saccharomyces cerevisiae [2] = assay: as above
Procedure: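 MPS profiling in S. cerevisiae of the tFT-X12 degron library: putative degron peptides plus stable controls, 12 aa, fused to the C-terminus of a sfGFP-mCherry timer. Cells are FACS-sorted into 8 mCherry/sfGFP bins and deep-sequenced. PSI runs from 0 (unstable) to 1 (stable). Backgrounds are wild type, das1Δ and doa10Δ at 30 °C, and wild type, das1Δ, cdc34-1 and cdc53-1 at 37 °C; 2-3 technical replicates each.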

[3] = genetic background: cdc34-1, temperature: 37 C
[4] = genetic background: cdc53-1, temperature: 37 C
[5] = genetic background: das1 deletion, temperature: 30 C
[6] = genetic background: das1 deletion, temperature: 37 C
[7] = genetic background: doa10 deletion, temperature: 30 C
[8] = genetic background: wild type, temperature: 30 C
[9] = genetic background: wild type, temperature: 37 C
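Also: PSI is a weighted mean of sequencing reads over stability bins, variants kept only with over 10 reads, mCherry proximal and sfGFP distal, peptide attached via GGGS linker.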

Row | Sequence | protein stability index (Saccharomyces cerevisiae [1]) | protein stability index (Saccharomyces cerevisiae [2]; [3]) | protein stability index (Saccharomyces cerevisiae [2]; [4]) | protein stability index (Saccharomyces cerevisiae [2]; [5]) | protein stability index (Saccharomyces cerevisiae [2]; [6]) | protein stability index (Saccharomyces cerevisiae [2]; [7]) | protein stability index (Saccharomyces cerevisiae [2]; [8]) | protein stability index (Saccharomyces cerevisiae [2]; [9])
1 | GLVCPWLIVRFV | 0.2 ± 0.015 | 0.303 ± 0.051 | 0.3 ± 0.065 | 0.372 ± 0.036 | 0.5 ± 0.0067 | 0.161 ± 0.022 | 0.136 ± 0.0078 | 0.216 ± 0.03
2 | NKYSMQNVLKSF | 0.418 ± 0.023 | 0.7 ± 0.034 | 0.711 ± 0.02 | 0.632 ± 0.025 | 0.752 ± 0.017 | 0.249 ± 0.06 | 0.323 ± 0.025 | 0.552 ± 0.049
3 | GITSFFSWSFLS | 0.237 ± 0.048 | 0.6014 ± 0.0038 | 0.7537 ± 0.0057 | 0.682 ± 0.064 | 0.782 ± 0.055 | 0.169 ± 0.015 | 0.172 ± 0.0065 | 0.366 ± 0.0087
4 | CFSLLFYTLSLL | 0.351 ± 0.018 | 0.47 ± 0.029 | 0.499 ± 0.0054 | 0.393 ± 0.022 | 0.5305 ± 0.0034 | 0.2695 ± 0.00095 | 0.274 ± 0.021 | 0.409 ± 0.0057
5 | NVALHPGVPRKC | 0.341 ± 0.036 | 0.656 ± 0.038 | 0.715 ± 0.018 | 0.677 ± 0.026 | 0.75 ± 0.031 | 0.664 ± 0.018 | 0.649 ± 0.019 | 0.702 ± 0.019
6 | NLSYFFFSVLFF | 0.499 ± 0.032 | 0.552 ± 0.069 | 0.562 ± 0.018 | 0.506 ± 0.033 | 0.693 ± 0.067 | 0.62 ± 0.022 | 0.545 ± 0.068 | 0.612 ± 0.038
7 | VRNKFSYVLRLN | 0.179 ± 0.016 | 0.488 ± 0.024 | 0.678 ± 0.014 | 0.615 ± 0.016 | 0.747 ± 0.0094 | 0.0804 ± 0.019 | 0.11 ± 0.029 | 0.138 ± 0.037
8 | SCYDYVILLQLS | 0.304 ± 0.026 | 0.506 ± 0.051 | 0.65547 ± 0.00031 | 0.435 ± 0.04 | 0.619 ± 0.025 | 0.178 ± 0.01 | 0.213 ± 0.042 | 0.393 ± 0.0047
9 | GGGAGVVWVRLG | 0.235 ± 0.035 | 0.5376 ± 0.0049 | 0.732 ± 0.022 | 0.642 ± 0.0084 | 0.7415 ± 0.0037 | 0.112 ± 0.0043 | 0.12 ± 0.027 | 0.166 ± 0.011
10 | GLRFFVSSLLCR | 0.508 ± 0.058 | 0.502 ± 0.039 | 0.54807 ± 0.0003 | 0.389 ± 0.036 | 0.5651 ± 0.0036 | 0.377 ± 0.0095 | 0.388 ± 0.02 | 0.555 ± 0.021
11 | GLCGVCLVRCVG | 0.338 ± 0.019 | 0.3008 ± 0.00051 | 0.412 ± 0.024 | 0.275 ± 0.031 | 0.478 ± 0.0052 | 0.211 ± 0.0051 | 0.249 ± 0.036 | 0.393 ± 0.0046
12 | IFLLFPFSWRIF | 0.446 ± 0.034 | 0.596 ± 0.042 | 0.6301 ± 0.0061 | 0.56 ± 0.039 | 0.694 ± 0.011 | 0.364 ± 0.027 | 0.376 ± 0.033 | 0.539 ± 0.036
13 | LPLHTLLLCPPV | 0.493 ± 0.031 | 0.447 ± 0.037 | 0.459 ± 0.013 | 0.37 ± 0.03 | 0.4988 ± 0.003 | 0.345 ± 0.0046 | 0.382 ± 0.024 | 0.4782 ± 0.0033
14 | SIQRKIRRMKEN | 0.4687 ± 0.0016 | 0.559 ± 0.093 | 0.732 ± 0.046 | 0.699 ± 0.048 | 0.7 ± 0.014 | 0.355 ± 0.017 | 0.333 ± 0.054 | 0.566 ± 0.0026
15 | GSLHWVMVFAVP | 0.489 ± 0.042 | 0.604 ± 0.037 | 0.6404 ± 0.0044 | 0.491 ± 0.025 | 0.6582 ± 0.0047 | 0.493 ± 0.033 | 0.487 ± 0.016 | 0.607 ± 0.03
16 | GLVWSKCFFIVG | 0.407 ± 0.033 | 0.637 ± 0.041 | 0.705 ± 0.016 | 0.547 ± 0.014 | 0.7105 ± 0.0018 | 0.2675 ± 0.0018 | 0.295 ± 0.022 | 0.528 ± 0.018
17 | LLLVSLAVPLSL | 0.509 ± 0.022 | 0.524 ± 0.013 | 0.569 ± 0.014 | 0.465 ± 0.017 | 0.559 ± 0.021 | 0.451 ± 0.03 | 0.459 ± 0.02 | 0.539 ± 0.0084
18 | VIGLLSYFLVYL | 0.491 ± 0.02 | 0.498 ± 0.061 | 0.513 ± 0.0062 | 0.407 ± 0.037 | 0.6091 ± 0.0039 | 0.438 ± 0.032 | 0.406 ± 0.019 | 0.581 ± 0.03
19 | RKRTILVIIVVK | 0.338 ± 0.061 | 0.181 ± 0.031 | 0.33 ± 0.042 | 0.234 ± 0.045 | 0.461 ± 0.05 | 0.186 ± 0.011 | 0.217 ± 0.046 | 0.395 ± 0.052
20 | RVSIIYLGVLIS | 0.112 ± 0.025 | 0.174 ± 0.012 | 0.297 ± 0.025 | 0.26 ± 0.024 | 0.436 ± 0.0092 | 0.0604 ± 0.011 | 0.073 ± 0.013 | 0.0592 ± 0.036

Row | Sequence | protein stability index (Saccharomyces cerevisiae [1]) | protein stability index (Saccharomyces cerevisiae [2]; [3]) | protein stability index (Saccharomyces cerevisiae [2]; [4]) | protein stability index (Saccharomyces cerevisiae [2]; [5]) | protein stability index (Saccharomyces cerevisiae [2]; [6]) | protein stability index (Saccharomyces cerevisiae [2]; [7]) | protein stability index (Saccharomyces cerevisiae [2]; [8]) | protein stability index (Saccharomyces cerevisiae [2]; [9])
21 | SSAPPTLHTRPS | 0.539 ± 0.059 | 0.642 ± 0.027 | 0.7092 ± 0.0049 | 0.662 ± 0.023 | 0.686 ± 0.012 | 0.664 ± 0.0071 | 0.6631 ± 0.0044 | 0.681 ± 0.0066
22 | WSWVFVVLRFGR | 0.527 ± 0.048 | 0.485 ± 0.035 | 0.5367 ± 0.0019 | 0.405 ± 0.027 | 0.574 ± 0.017 | 0.412 ± 0.025 | 0.394 ± 0.024 | 0.562 ± 0.014
23 | VFVLFCAFVRAL | 0.2111 ± 0.00022 | 0.212 ± 0.025 | 0.413 ± 0.032 | 0.286 ± 0.036 | 0.482 ± 0.014 | 0.0841 ± 0.013 | 0.0907 ± 0.0079 | 0.096736 ± 8.4e-05
24 | VAFVVALSLIFL | 0.386 ± 0.0059 | 0.327 ± 0.019 | 0.443 ± 0.014 | 0.306 ± 0.028 | 0.424 ± 0.0062 | 0.281 ± 0.019 | 0.333 ± 0.043 | 0.43 ± 0.023
25 | WFLMVILYTVYG | 0.299 ± 0.0077 | 0.157 ± 0.0068 | 0.2 ± 0.0073 | 0.182 ± 0.035 | 0.304 ± 0.0055 | 0.149 ± 0.033 | 0.187 ± 0.032 | 0.278 ± 0.013
26 | RICCLFILLFCL | 0.423 ± 0.057 | 0.439 ± 0.043 | 0.464 ± 0.024 | 0.396 ± 0.03 | 0.477 ± 0.0084 | 0.422 ± 0.0089 | 0.365 ± 0.028 | 0.412 ± 0.019
27 | LCFTSVFTLFIC | 0.101 ± 0.024 | 0.288 ± 0.028 | 0.469 ± 0.026 | 0.382 ± 0.026 | 0.511 ± 0.006 | 0.0848 ± 0.017 | 0.0664 ± 0.0089 | 0.0756 ± 0.015
28 | FCDFLFVFPLFS | 0.515 ± 0.22 | 0.562 ± 0.016 | 0.596 ± 0.013 | 0.507 ± 0.019 | 0.6583 ± 0.0028 | 0.589 ± 0.011 | 0.479 ± 0.024 | 0.6321 ± 0.0062
29 | FYPFHVFCLLIF | 0.243 ± 0.029 | 0.18 ± 0.028 | 0.177 ± 0.037 | 0.254 ± 0.017 | 0.361 ± 0.012 | 0.18 ± 0.023 | 0.162 ± 0.028 | 0.228 ± 0.0053
30 | PRHVLWLRRLLF | 0.334 ± 0.0067 | 0.68 ± 0.052 | 0.7289 ± 0.0067 | 0.622 ± 0.02 | 0.782 ± 0.029 | 0.2 ± 0.016 | 0.235 ± 0.024 | 0.5371 ± 0.0031
31 | VVATLRCLRCSV | 0.405 ± 0.021 | 0.474 ± 0.014 | 0.501 ± 0.052 | 0.346 ± 0.035 | 0.5244 ± 0.0026 | 0.236 ± 0.014 | 0.273 ± 0.043 | 0.441 ± 0.013
32 | LMWVFPRVVWLY | 0.0903 ± 0.014 | 0.123 ± 0.037 | 0.102 ± 0.016 | 0.244 ± 0.042 | 0.321 ± 0.022 | 0.0838 ± 0.0041 | 0.0646 ± 0.0052 | 0.0611 ± 0.00062
33 | LIFRLCVCGVFW | 0.4101 ± 0.00073 | 0.516 ± 0.03 | 0.549 ± 0.015 | 0.468 ± 0.044 | 0.5218 ± 0.0011 | 0.278 ± 0.017 | 0.271 ± 0.032 | 0.376 ± 0.009
34 | LLFLVCFFPSIS | 0.454 ± 0.05 | 0.46 ± 0.061 | 0.534 ± 0.016 | 0.311 ± 0.045 | 0.549 ± 0.033 | 0.304 ± 0.0092 | 0.313 ± 0.043 | 0.52 ± 0.036
35 | SRSFFRRLLFCF | 0.396 ± 0.016 | 0.642 ± 0.033 | 0.7705 ± 0.0056 | 0.679 ± 0.022 | 0.8141 ± 0.0018 | 0.3352 ± 0.0008 | 0.352 ± 0.0083 | 0.4821 ± 0.0037
36 | SYVFEFIVSVVF | 0.315 ± 0.0044 | 0.208 ± 0.016 | 0.347 ± 0.011 | 0.253 ± 0.03 | 0.373 ± 0.015 | 0.23 ± 0.0064 | 0.255 ± 0.014 | 0.341 ± 0.016
37 | WLSFAIECGMVW | 0.357 ± 0.045 | 0.1938 ± 0.0014 | 0.28 ± 0.058 | 0.252 ± 0.023 | 0.3286 ± 0.0012 | 0.2135 ± 0.0014 | 0.249 ± 0.026 | 0.287 ± 0.032
38 | VGVCGSSGRVGG | 0.7 ± 0.025 | 0.688 ± 0.03 | 0.7314 ± 0.0042 | 0.641 ± 0.014 | 0.718 ± 0.0032 | 0.643 ± 0.021 | 0.645 ± 0.012 | 0.717 ± 0.024
39 | IFPSRSLLAASA | 0.446 ± 0.0097 | 0.403 ± 0.013 | 0.457 ± 0.062 | 0.339 ± 0.033 | 0.5192 ± 0.0019 | 0.317 ± 0.016 | 0.339 ± 0.025 | 0.48 ± 0.028
